Substitutions are numbered along the chain they refer to.
B1: H1H685P (antibody, V domains shown)
VH: EVQLVESGGGLVQPGGSLRLSCAASGFTFSSYDIHWVRQATGKGLEWVSAIGPAGDTYYPGSVKGRFTISRENAKNSLYLQMNSLRAGDTAVYYCARGLITFGGLIAPFDYWGQGTLVTVSS
VL: EIVLTQSPGTLSLSPGERATLSCRASQSVSSTYLAWYQQKPGQAPRLLIYGASSRATGIPDRFSGSGSGTDFTLTISRLEPEDFAVYYCQHYDNSQTFGQGTKVEIK
B2: H1H691P (antibody, human IgG1, V domains shown)
VH: EVQLVESGGGLVQPGRSLRLSCAASGFTFDDYAMHWVRQAPGKGLEWVSGISWNSGDIGYADSVKGRFTISRDNAKNSLYLQMNSLRAQDTALYYCAKAYGDYYYFYGMDVWGQGTTVTVS
VL: B1 VL with T32S, Y50F, G51S, H91Q, Q96L, Q100G
notes: Human IgG1
B3: H1H695P (antibody, human IgG1, V domains shown)
VH: QVQLVESGGGVVQPGRSLRLSCAASGFTFSSYGMHWVRQAPGKGLEWVAVMWYDETNKYYADSVKGRFTISRDNSKNTLYLQMNSLRAEDTAVYYCARYSGYEDYYHGMDVWGQGTTVTVS
VL: EIVMTQSPATPSVSPGERATLSCRASQSISSNLAWYQQKPGQAPRLLIYGASTRATGIPARFSGSGSGTEFTLTISSLQSEDFAVYYCQHYNNWITFGQGTRLEIK
notes: Human IgG1
B4: H1M749N (antibody, V domains shown)
VH: QVQLVESGGGVVQPGRSLRLSCAASGFTFSSYGMHWVRQAPGKGLEWVAVIWYDEFNKYYADSVKGRFTISRDNSKNTLYLQMNSLRAEDTAVYYCARERESGYSYGFDYWGQGTLVTVSS
VL: B3 VL with P11L, S26G, I29V, H90Q, I95W, R102K, L103V
notes: also called H2M749N
B5: H2M743N (antibody, V domains shown)
VH: EVQLLESGGGLVQPGGSLRLSCAASGFTFRKYAMSWVRQAPGKGLEWVSVISVSGGNTYYADSVKGRFTISRDNSKNTLYLQLNSLRAEDTAVYYCAKDLTDIVLMVYVDYWGQGTLVTVSS
VL: DIQMTQSPSSVSASVGDRVTITCRASQDIDRWLAWYQQKPGKAPKLLIYAASSLQSGVPSRFSGSGSGTDFTLTISTLQPEDFATYYCQQANSLPFTFGGGTKVEIK
notes: also called H1M743N
B6: H2M744N (antibody, V domains shown)
VH: QVQLVQSGVEVKKPGASVKVSCKTSGYTFSNNGFSWVRQAPGQGLEWLGWISGYNGNTNYAQKFQGRVTMTTDTSTSTAYMELRTLRSDDTAVYYCARDQDYSNFHWLDPWGQGTLVTVAS
VL: DIQMTQSPSSVSASVGDRVIITCRASQGLSSWLAWYQQKPGTAPKLLIHSASSLQTGVPSRFSGSGSGTEFALTINSLQPEDFGTYYCQQANSFPLTFGGGTRVEIK
notes: also called H1M744N; H1M744
B7: H2M742N (antibody, V domains shown)
VH: DVQLLESGGDLVQPGGSLRLSCEASGFTFRNYVMIWVRQAPGKGLEWVSGISNSGGTTHYTDSVKGRFTISRDNSKNTLYLQINSLRAEDTAVYYCAKGYLDTSLIEGNWFDPWGQGTLVTVSS
VL: NIVMTQSPLSLPVTPGEPASISCRSSQSLLHSNGFNYLNWFLQKPGQSPQLLIYLGSNRASGVPDKFSGSGSGTDFTLNINRVEAEDVGIYFCMQTLQTPLTFGGGTKVEIK
notes: also called H1M742N
B8: H2M750N (antibody, V domains shown)
VH: QVKLVESGGGVVQPGRSLRVSCAASGFTFSSYGMHWVRQAPGKGLEWLAIIWYDGDNKYYSDSVKGRFTISRDNSKNTLYLQMNSLRAEDTAEYYCVRDASIASRFLDYWGQGTLVTVSS
VL: DIQMTQSPSSLSASIGDRVTITCRATQDINNYLAWFQQKPGKAPKSLIYATSNLQSGVPSKFSGSGSGTDYTLTISSLQPEDFSTYYCQQYHSYPLTFGGGTKVEIK
notes: also called H1M750N; H1M750
B9: H1H690P (antibody, human IgG1, V domains shown)
VH: EVQLVESGGGLVQPGESLRLSCAASGFTFSSYAMSWVRQGPGKGLEWVSSITGSGDTTYYADSVKGRFTISRDNSKNTLYLHMNSLRAEDTAVYYCAKDFLDYSTYLAFDLWGQGTMVTVSS
VL: EIVLTQSPATLSLSPGERATLSCRASQSVSSYLTWYQQKPGQAPRLLSYDASNRATGIPARFSGSGSGTDFTLTISSLEPEDFAVYYCQQRSNWPLTFGGGTKVEIK
notes: Human IgG1
B10: H1M732N (antibody, V domains shown)
VH: EVQLVESGGGLVRPGGSLRLSCAASGFTFTNAWMSWVRQAPGKGLEWIGQIKSKTDGGTIDYAAPVKGRFTVSRDDSENTLFLQMNSLKTEDTAVYYCAGNWNYVDFDYWGQGTLVTVSS
VL: DIQMTQSPSSLSASVGDRVTITCRASQDIRNDLGWYQQKPGKAPKRLIYAASSLQGGVPSRFSGSGSGTEFTLTISSLQPEDFATYYCLQHNSYPFTFGPGTKVDIK
B11: H1H704P (antibody, V domains shown)
VH: QVQLVESGGDVVQPGRSLRLSCAASGFTFSSYGMHWVRQAPGKGLEWVAIIWYDGSNKYYADSVKGRFTISRDNSKNTLYLQMNSLRVEDTAVYSCARDFSISSRHFDYWGQGTLVTVSS
VL: DIQMTQSPSSLSASVGDRVTITCRASQAINNYLAWFQQKPGKAPKSLIYATSNLQSGVPSQFSGSGSGTDYTLTISSLQPEDFATYYCQQYYIYPITFGQGTRLEIK
notes: Human IgG1

Key:
[1] = target: T1, Dimeric Mouse Ang-2FD conjugated to human IgG1 (mouse (Mus musculus); human); assay: SPR, captured Ab, RT
T1 construct: also called Mouse Ang-2FD-hFc
T1 sequence (chain, as listed by the source limits assumed): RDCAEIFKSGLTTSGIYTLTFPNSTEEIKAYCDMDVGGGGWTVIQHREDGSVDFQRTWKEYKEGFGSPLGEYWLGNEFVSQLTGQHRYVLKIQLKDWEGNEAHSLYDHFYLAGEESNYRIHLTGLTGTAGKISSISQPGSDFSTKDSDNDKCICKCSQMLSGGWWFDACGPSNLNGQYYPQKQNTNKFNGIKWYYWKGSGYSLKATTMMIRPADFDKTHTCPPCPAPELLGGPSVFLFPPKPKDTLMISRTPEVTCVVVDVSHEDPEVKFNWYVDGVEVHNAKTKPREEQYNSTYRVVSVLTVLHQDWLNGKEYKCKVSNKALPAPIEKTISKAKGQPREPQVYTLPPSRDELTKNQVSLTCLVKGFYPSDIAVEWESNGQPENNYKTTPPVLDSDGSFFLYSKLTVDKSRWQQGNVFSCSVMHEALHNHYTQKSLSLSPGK
Method in brief: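 Antibody captured on amine-coupled goat anti-mouse IgG, anti-human κ or anti-human IgG polyclonal surfaces on a CM5 chip; antigen binding and dissociation followed in real time at room temperature. KD and complex dissociation half-life derived by kinetic analysis.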

[2] = target: T1, Dimeric Mouse Ang-2FD conjugated to …; assay: SPR, captured Ab, 25°C
Procedure: (§1) Each selected antibody or control construct was captured at a flow rate of 40 μL/min for 1 minute on a goat anti-human kappa polyclonal antibody surface created through direct chemical coupling to a BIACORE™ chip to form a captured antibody surface.

[3] = target: T1, Dimeric Mouse Ang-2FD conjugated to …; assay: SPR, captured Ab, 37°C
Procedure: as §1

Human Ang-2FD-hFc = target: T2, Human Ang-2FD-hFc (human); assay: blocking ELISA, 16.67 nM antibody, Ang-2FD-hFc to coated hTie-2-mFc
T2 construct: also called dimeric human Ang-2FD; human Ang-2FD protein conjugated to human IgG
T2 sequence (chain, as listed by the source limits assumed): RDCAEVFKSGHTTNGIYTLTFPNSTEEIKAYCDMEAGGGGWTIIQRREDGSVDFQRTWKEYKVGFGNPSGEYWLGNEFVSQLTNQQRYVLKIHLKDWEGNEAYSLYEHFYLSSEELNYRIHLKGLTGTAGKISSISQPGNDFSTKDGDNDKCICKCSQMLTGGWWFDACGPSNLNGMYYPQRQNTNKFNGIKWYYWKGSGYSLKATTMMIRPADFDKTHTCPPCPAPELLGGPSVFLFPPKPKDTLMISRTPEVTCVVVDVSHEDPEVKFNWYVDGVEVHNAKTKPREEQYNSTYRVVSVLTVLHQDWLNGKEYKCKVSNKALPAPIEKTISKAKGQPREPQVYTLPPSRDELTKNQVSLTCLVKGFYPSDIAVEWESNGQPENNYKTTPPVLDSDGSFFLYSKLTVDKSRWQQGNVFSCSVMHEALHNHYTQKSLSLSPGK
Procedure: (§2) The plate was then blocked with PBS (Irvine Scientific, Santa Ana, Calif.) containing 0.5% BSA (Sigma-Aldrich Corp., St. Louis, Mo.) for one hour at room temperature. […] Human, mouse or monkey Ang-2FD protein conjugated to human IgG (Ang-2FD-hFc) were added to final concentrations of 2 nM, 8 nM, or 2 nM respectively and incubated for one hour at room temperature. The antibody/Ang-2FD-Fc mixture was then added to the plate containing hTie-2-mFc and incubated for one hour at room temperature. Detection of Ang-2FD-hFc bound to hTie-2-mFc protein was determined with Horse-Radish Peroxidase (HRP) conjugated to a-human IgG antibody (Jackson Immuno Research Lab, West Grove, Pa.) and developed by standard colorimetric response using tetramethylbenzidine (TMB) substrate (BD Biosciences, San Jose, Calif.). Absorbance was read at OD₄₅₀ for 0.1 sec.

Mouse Ang-2FD-hFc = target: T3, Mouse Ang-2FD-hFc (mouse (Mus musculus)); assay: as above
T3 construct: also called dimeric mouse Ang-2FD
Procedure: as §2

Monkey Ang-2FD-hFc = target: T4, Monkey Ang-2FD-hFc (monkey (Macca fascicularis)); assay: as above
T4 construct: also called dimeric monkey Ang-2FD
T4 sequence (chain, as listed by the source limits assumed): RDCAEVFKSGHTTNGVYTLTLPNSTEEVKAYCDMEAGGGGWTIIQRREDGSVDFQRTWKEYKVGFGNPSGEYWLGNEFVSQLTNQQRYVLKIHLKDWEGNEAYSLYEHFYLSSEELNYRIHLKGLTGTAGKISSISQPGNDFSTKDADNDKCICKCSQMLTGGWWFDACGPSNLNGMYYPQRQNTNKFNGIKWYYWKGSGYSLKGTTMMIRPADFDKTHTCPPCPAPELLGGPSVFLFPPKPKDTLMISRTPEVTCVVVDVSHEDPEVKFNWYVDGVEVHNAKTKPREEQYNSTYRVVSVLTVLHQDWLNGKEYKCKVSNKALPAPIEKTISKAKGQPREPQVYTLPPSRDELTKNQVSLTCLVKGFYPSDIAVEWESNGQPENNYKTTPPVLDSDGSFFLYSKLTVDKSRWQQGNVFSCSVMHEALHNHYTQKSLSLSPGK
Procedure: as §2

Biotin-hBA2 [4] = target: T5, Biotin-hBA2 (human, biotinylated (sites not given)); assay: blocking ELISA, biotin-hBA2 to hTie-2
T5 construct: hBA2 consists of two dimers; also called biotinylated hBA2; human bow-Ang2
T5 sequence (chain, as listed by the source limits assumed): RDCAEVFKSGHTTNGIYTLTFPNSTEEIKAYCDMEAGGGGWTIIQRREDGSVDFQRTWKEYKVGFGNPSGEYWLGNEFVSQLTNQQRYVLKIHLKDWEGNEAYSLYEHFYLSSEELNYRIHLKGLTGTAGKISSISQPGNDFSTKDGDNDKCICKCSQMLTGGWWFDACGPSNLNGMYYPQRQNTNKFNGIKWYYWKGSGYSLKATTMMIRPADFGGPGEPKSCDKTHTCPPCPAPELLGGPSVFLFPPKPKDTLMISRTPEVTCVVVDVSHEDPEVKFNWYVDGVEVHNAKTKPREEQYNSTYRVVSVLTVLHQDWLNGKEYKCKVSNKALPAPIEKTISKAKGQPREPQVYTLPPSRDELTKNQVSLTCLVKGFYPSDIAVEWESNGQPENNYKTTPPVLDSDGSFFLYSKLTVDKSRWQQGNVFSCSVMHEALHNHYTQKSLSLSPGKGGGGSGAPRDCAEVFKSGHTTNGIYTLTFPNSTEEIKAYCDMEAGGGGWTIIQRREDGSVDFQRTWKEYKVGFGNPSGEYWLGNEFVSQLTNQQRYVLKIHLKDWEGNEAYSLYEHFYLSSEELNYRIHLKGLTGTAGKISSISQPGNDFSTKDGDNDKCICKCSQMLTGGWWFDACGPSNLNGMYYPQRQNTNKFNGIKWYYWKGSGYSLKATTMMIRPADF

Biotin-hBA2 [5] = target: T5, Biotin-hBA2; assay: blocking ELISA, biotin-hBA2 to hTie-2-His, mean of two experiments
Procedure: as §2
For this experiment, human Tie-2 conjugated to a histidine tag (hTie-2-His; SEQ ID NO:526) was used in a similar fashion to the hTie-2-mFc described above. Antibody concentrations from 5 nM were serially diluted three-fold. […] An average IC₅₀ value for each antibody was calculated based on two separate experiments.

Row | Binder | Percent Blocking of Ang-2FD Binding to Tie-2 (Human Ang-2FD-hFc) [%] | Percent Blocking of Ang-2FD Binding to Tie-2 (Mouse Ang-2FD-hFc) [%] | IC50 (Biotin-hBA2 [5]) [nM] | other results
1 | B1 |  |  |  | Kd [1]: 0.148 nM; T1/2 [1]: 2.14 h; Kd [2]: 0.0651 nM; T1/2 [2]: 3.47 h; Kd [3]: 0.0939 nM; T1/2 [3]: 1.07 h
2 | B2 | 97.4 | 96.7 |  | Percent Blocking of Ang-2FD Binding to Tie-2 (Monkey Ang-2FD-hFc): 99.8%
3 | B3 | 98.4 | 97.6 |  | IC50 (Biotin-hBA2 [4]): 0.059 nM
4 | B4 |  |  | 0.00643 | 
5 | B5 |  |  | 0.011 | 
6 | B6 |  |  | 0.0114 | 
7 | B7 |  |  | 0.00965 | 
8 | B8 |  |  | 0.00883 | 
9 | B9 | 97.2 | 98 |  | IC50 (Biotin-hBA2 [4]): 0.017 nM; Percent Blocking of Ang-2FD Binding to Tie-2 (Monkey Ang-2FD-hFc): 99.6%
10 | B10 |  |  | 0.0822 | 
11 | B11 | 97 | 41.8 |  | IC50 (Biotin-hBA2 [4]): 0.056 nM

Reference: patent US20140112930A1 (published 2014)
